Assays:
Assay type in all cases: cell-based, rat
[1] = system: c-fos mRNA (Trk receptor tyrosine kinase signaling); assay: RT-PCR analysis of neurotrophin-dependent c-fos induction; details: for induction of c-fos mRNA: proliferating controls treated with neurotrophin
Experimental: (§1) Cell Culture. For proliferating conditions, clonal stem cells (AP14) were cultured in Dulbecco's Modified Eagles Medium/Ham's F12 (DMEM/F12, 1:1) containing N2 supplement (Gibco BRL, Gaithersburg, Md.) and 20 ng/ml rhFGF-2 (provided by A. Baird, Prizm Pharmaceuticals Inc., La Jolla, Calif.). Culture dishes (Becton Dickinsin Labware, Lincoln Park, N.J.) were coated with polyomithine and mouse laminin as previously described by Ray, et al., Proliferation, differentiation and long-term culture of primary hippocampal neurons, Proc Natl Acad Sci USA 90:3602-3606 (1993). For differentiation experiments, cells were plated into polyornithine/laminin coated glass chamber slides (Nunc, Naperville, Ill.) at a density of 2.5—103 per cm2. The cells were incubated for 24 hrs in normal N2 medium containing 20 ng/ml FGF-2, and then the medium was replaced by N2 medium containing 0.5% […] (FBS) and 0.01% DMSO (control solvent) or […] all-trans retinoic acid (Sigma, St. Louis, Mo.). For further differentiation, the medium was replaced by N2 medium containing 0.5% FBS and one of the following: sterile water (control solvent), mouse 2.55 NGF (50 ng/ml, Boehringer Mannheim, Indianapolis, Ind.), rhBDNF (20 ng/ml, Alomone Labs, Jerusalem, Israel), rhNT-3 (40 ng/ml, Genentech, South San Francisco, Calif.). The medium was replaced every two days. For inhibition of the tyrosine kinase activity of the Trk receptors, K-252a (100 nM, Calbiochem, San Diego, Calif.) was added to the medium.
Reverse Transcription-PCR Analysis. Total RNA from stem cells was isolated using RNeasy Total RNA Kits (Qiagen, Chatsworth, Calif.) according to manufacturer's instructions. Fifty nanograms of total RNA was reverse transcribed using avian myeloblastosis virus reverse transcriptase (Promega, Madison, Wis.) with random hexamers ([…]) as primers in a […] reaction mixture. For PCR amplification, two sets of specific oligonucleotide pairs ([…]) were used: one directed to the transcript of interest, and one for a constitutively expressed transcript, either ribosomal protein L27 or L27a. Reactions were performed in a […] reaction mixture containing 10 mM Tris-Cl (pH 8.4), 50 mm KCl, 1.5 mM MgC12, […] each of the four dNTPs, 2 mCi of [a-32P]dCTP and 5 units of Taq polymerase (Promega) using a thermal cycler (Perkin-Elmer, Foster City, Calif.) with a regimen of 1 min at 94° C., 2 min at 60° C. (55° C. for trk receptors) and 2 min at 72° C. for 23 cycles Fifty microliters of each reaction was analyzed by electrophoresis on 8% polyacrylamide gels followed by autoradiography. […] Under these conditions, the L27 amplification product was directly proportional to the amount of input RNA, up to 50 ng total RNA. Oligonucleotide primers used are as follows: […]
RA treatment also results in neurotrophin-dependent induction of c-fos. Transient and rapid induction of immediate early genes such as c-fos is a well-characterized response to extracellular stimuli in neural cells. c-fos is induced after neurotrophin treatment in cultured […] hippocampal or cortical cells and the signaling cascade following c-fos induction is considered to be integral to subsequent steps in differentiation. To determine whether upregulation of mRNAs for trk receptors and p75NGFR observed in the stem cell cultures results in the acquisition of functional Trk-dependent stimulation of c-fos, mRNA was examined by RT-PCR analysis after stimulating RA-treated cells with neurotrophins. […]

ACSC cultures = assay: Neuronal transmitter phenotype after RA priming and neurotrophin treatment (GABA, TH, calbindin, AChE); details: neurotrophin after 6 days RA
Experimental: as §1
Immunofluorescence. An immunofluorescent staining was performed as previously described (Gage F H, Ray J, Fisher L J (1995a) Isolation, characterization, and use of stem cells from the CNS. Annu Rev Neurosci 18: 159-192. or Gage F H, Coates P W, Palmer T D, Kuhn H G, Fisher L J, Suhonen J O, Peterson D A, Suhr S T, Ray J (1995b) Survival and differentiation of adult neuronal progenitor cells transplanted to the adult brain. Proc Natl Acad Sci USA 92:11879-11883.) Briefly, after fixation with 4% paraformaldehyde in PBS, cells were incubated with primary antibodies overnight at […]. Then the cells were incubated for 1 hr with secondary antibodies (Jackson Immunoresearch) conjugated to fluorescein isothiocyanate, or cyanin-3. Primary antibody concentrations used are as follows (mo=mouse monoclonal, rb=rabbit polyclonal, gp=guinea pig polyclonal): mo a-MAP2abc, 1:5000 (Sigma), mo a-MAP2ab, 1:500 (Sigma), mo a-p75NGFR, 1:10 (192-IgG hybridoma supernatant, a gift from C. E. Chandler, Stanford Univ., Stanford, Calif.), rb a-c-Fos (4),1:4000 (Santa Cruz Biotechnology, Santa Cruz, Calif.), gp a-GFAP, 1:500 (Advanced Immunochemicals, Long Beach, Calif.), rb a-GABA, 1:5000 (Sigma), mo a-TH, 1:500 (Boehringer Mannheim), rb a-calbindin 1:1000 (SWant, Bellinzona, Switzerland). Labeled cells were visualized using confocal scanning laser microscopy (Zeiss Axiovert, Thornwood, N.Y. and Bio-Rad MRC1000, Hemel Hempstead, UK) and color images were generated using Adobe Photoshop (Adobe Systems, Mountain View, Calif.). Both the average percentage and the absolute number +/− SEM of immunofluorescent cells were determined by counting 10 or 50 high power fields (20×) visualized under fluorescence. The total number of cells was counted using nuclear counterstaining with 4′,6diamidino-2-phenylindole (DAPI, Sigma). Statistical analyses were carried out using ANOVA test.
Histochemical Staining for AChE. Cholinergic cells were identified by histochemical staining for AChE by a modification of the staining method of Geneser-Jensen and Blackstadt. Distribution of acetylcholinesterase in the hippocampal region of the guinea pig. I. Entorhinal area parasubiculum, and pre-subiculum, Z Zellforsch 114:460-481(1971). […]

[2] = system: low-buoyancy cortical cells; assay: Acquisition of neuron competence by low-buoyancy cortical cells in culture; details: 10% serum or 5 ng/ml PDGF instead of FGF-2
From the text: Tissue dissection: Three areas were dissected from adult rat brains as follows. Rats (170-190 g Fisher 344 males or females, Harlan) were deeply anesthetized with a mixture of ketamine, xylazine, and acepromazine. Animals were decapitated and whole brains removed. First, ˜1.5 mm of each optic nerve were harvested rostral to, but not including, the optic chiasma. The brain was then bisected longitudinally and each hippocampal lobe separated from the overlaying cortical white matter using the natural separation line along the alveus hippocampus. The white matter of the fimbria and subiculum was removed as much as possible. Some white matter remained. Finally, a 1.5 mm wide cortical ribbon containing parietal and frontal segments was dissected longitudinally, proximal to the central fissure. The pial and callosal surfaces were trimmed from each cortical ribbon to remove a majority of the meninges and white matter.
Tissue dissociation and fractionation: Tissues were finely minced and digested in a solution of papain (2.5 U/ml, Worthington), DNAse (250 U/ml, Worthington), and neutral protease (1 U/ml Dispase, Boehringer) dissolved in Hanks balanced salt solution, as described in Palmer T D, Ray J, Gage F H (1995), FGF-2-Responsive Neuronal Progenitors Reside in Proliferative and Quiescent Regions of the Adult Rodent Brain. Mol Cell Neurosci 6:474-486; and Gage F H, Coates P W, Palmer T D, Kuhn H G, Fisher L J, Suhonen J O, Peterson D A, Suhr S T, Ray J (1995), Survival and differentiation of adult neuronal progenitor cells transplanted to the adult brain. Proc Natl Acad Sci USA 92:11879-11883. Cells and tissue fragments were washed 3 times with Dulbecco's Modified Eagles Medium (DMEM) containing 10% […] bovine serum (defined FBS, Hyclone). Whole digested tissue was then suspended in DMEM 10% FBS, filtered through a sterile 107 μm nylon mesh and thoroughly mixed with an equal volume of PERCOLL™ (polyvinylpyrrolidone-coated silica colloids) solution. The PERCOLL™ (polyvinylpyrrolidone-coated silica colloids) solution was made by mixing 9 parts of PERCOLL™ (polyvinylpyrrolidone-coated silica colloids) (Pharmacia) with 1 part 10X phosphate buffered saline (PBS, Irvine Scientific). The cell suspension was then fractionated by centrifugation for 30 minute, 18°C., at 20,000×g. […]
To determine how rapidly cortical cells acquired the competence to differentiate into neurons in culture, cells were isolated and cultured in growth medium for various times, allowed to differentiate in differentiation medium and then evaluated for the presence of neurons. […] Cultures were also treated with BrdU for the first 10 days and the newly generated neurons were evaluated for evidence of cell division. All neurons scored were labeled (>99%).

Molecule | c-fos induction by each neurotrophin (NGF, BDNF, NT-3) ([1]; pretreatment with K-252a (100 nM)) | number of AChE-positive cells (ACSC cultures) | number of TH-positive cells (ACSC cultures) | number of calbindin-positive cells (ACSC cultures) | number of neurons expressing GABA (ACSC cultures) | induction of c-fos mRNA [1] | neuron formation in control cultures [2]
COC(=O)[C@@]1(O)C[C@H]2O[C@]1(C)n1c3ccccc3c3c4c(c5c6ccccc6n2c5c31)C(=O)NC4 [K-252a, reference compound] | blocked | – | – | – | – | – | –
NT-3: Neurotrophin-3 | – | small increases over control cultures | increased | increased | increased | slightly increased | –
PDGF | – | – | – | – | – | – | no neurons were formed
BDNF: brain-derived neurotrophic factor (protein, UniProt P23560 19-247, looked up) Neurotrophic factor BDNF …: APMKEANIRGQGGLAYPGVRTHGTLESVNGPKAGSRGLTSLADTFEHVIEELLDEDQKVRPNEENNKDADLYTSRVMLSSQVPLEPPLLFLLEEYKNYLDAANMSMRVRRHSDPARRGELSVCDSISEWVTAADKKTAVDMSGGTVTVLEKVPVSKGQLKQYFYETKCNPMGYTKEGCRGIDKRHWNSQCRTTQSYVRALTMDSKKRIGWRFIRIDTSCVCTLTIKRGR | – | most effective agent | increased | increased | increased | minimal | –
NGF: mouse 2.55 NGF, nerve growth factor (protein, UniProt P01139 122-241, looked up) Beta-nerve growth factor: SSTHPVFHMGEFSVCDSVSVWVGDKTTATDIKGKEVTVLAEVNINNSVFRQYFFETKCRASNPVESGCRGIDSKHWNSYCTTTHTFVKALTTDEKQAAWRFIRIDTACVCVLSRKATRRG | – | small increases over control cultures | not | – | – | minimal | –
